To fix the notation:
B1: SIRPβ1 isoform 201 transmembrane domain (TMD), bacterial two-hybrid fusion (domain or fragment)
chain: PLLVALLLGPKLLLVVGVSAIYIC
B2: SIRPβ1 isoform 202 transmembrane domain (TMD), bacterial two-hybrid fusion (domain or fragment)
chain: PLLIAFLLGPKVLLVVGVSVIYVY

The target in the test is TYROBP transmembrane domain (TMD), bacterial two-hybrid fusion (UniProt O43914). Put plainly: two-hybrid.
Sequence of UniProt O43914 (O43914 22-113): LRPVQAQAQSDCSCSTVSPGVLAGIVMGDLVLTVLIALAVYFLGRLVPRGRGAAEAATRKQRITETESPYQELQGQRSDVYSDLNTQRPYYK
For “TREM2 transmembrane domain (TMD), bacterial two-hybrid fusion (from UniProt Q9NZC2 19-230) (domain or fragment)”, the Miller Units (β-galactosidase, B2H) turned out to be 903 Miller Units.
The value for B1 was 111 Miller Units.
To B2 belongs 94 Miller Units.
